Among the data in the RNAGym collection of RNA variant scans (doi:10.1093/molbev/msab373) are reverse-splicing fitness values, retold here.

The chains are these.
B1: Azoarcus group I ribozyme (parent)
chain: GUGCCUUGCGCCGGGAAACCACGCAAGGGAUGGUGUCAAAUUCGGCGAAACCUAAGCGCCCGCCCGGGCGUAUGGCAACGCCGAGCCAAGCUUCGGCGCCUGCGCCGAUGAAGGUGUAGAGACUAGACGGCACCCACCUAAGGCAAACGCUAUGGUGAAGGCAUAGUCCAGGGAGUGGCGAAAGUCACACAAACCGG

The variants in this series derive from B1. Kind of series: reverse-splicing fitness (ratio to wild type); higher = more active; in vitro selection; Mg2+ level not given. The essentials: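 An in vitro group I ribozyme library with randomized positions was T7-transcribed and gel-purified. In triplicate, 10 pmol RNA in EPPS pH 7.5 was reacted with 50 pmoles of a 30-nt RNA substrate for 1 h at 37 °C across several added MgCl2 levels (1–48 mM), then stopped with EDTA. Products were reverse transcribed from a substrate-complementary primer, PCR-amplified and sequenced (HiSeq 4000). Fitness is a variant's read proportion after selection over that before, normalised to wild type.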
With GUGCCUUGCGCCGGGAAACCACGCAAGGGAUGGUGUCAAAUUCGGCGAAACCUAAGCGCCCGCCCGGGCGUAUGGCAACGCGGAGCCAAGCUUCGGCGCCUGCGCCGAUGGAGGUGUAGAGACUAGACGGCACCCACCUAAGGCGAACGAUAUGGUGAAGGCAUAGUCUAGGGAGUGGCGAAAGUCACACAAACCGG [C82G A111G A145G C150A C169U], the reverse-splicing fitness was 0.0105. Then GUGCCUUGCGCCGGGAAACCACGCAAGGGAUGGUGUCAAAUUCGGCGAAACCUAAGCGCCCGCCCGGGCGUAUGGCAACGCGGAGCCAAGCUUCGGCGCCUGCGCCGAUGGAGGUGUAGAGACUAGACGGCACCCACCUAAGGCGAACGAUAUGGUGAAGGCAUAGUCGAGGGAGUGGCGAAAGUCACACAAACCGG [C82G A111G A145G C150A C169G], with 0.00938; and GUGCCUUGCGCCGGGAAACCACGCAAGGGAUGGUGUCAAAUUCGGCGAAACCUAAGCGCCCGCCCGGGCGUAUGGCAACGCGGAGCCAAGCUUCGGCGCCUGCGCCGAUGGAGGUGUAGAGACUAGACGGCACCCACCUAAGGCGAACGGUAUGGUGAAGGCAUAGUCGAGGGAGAGGCGAAAGUCACACAAACCGG [C82G A111G A145G C150G C169G U176A], with 0.011. The value for GUGCCUUGCGCCGGGAAACCACGCAAGGGAUGGUGUCAAAUUCGGCGAAACCUAAGCGCCCGCCCGGGCGUAUGGCAACGCGGAGCCAAGCUUCGGCGCCUGCGCCGAUGGAGGUGUAGAGACUAGACGGCACCCACCUAAGGCGAACGGUAUGGUGAAGGCAUAGUCGAGGGAGCGGCGAAAGUCACACAAACCGG [C82G A111G A145G C150G C169G U176C] was 0.0126. GUGCCUUGCGCCGGGAAACCACGCAAGGGAUGGUGUCAAAUUCGGCGAAACCUAAGCGCCCGCCCGGGCGUAUGGCAACGCGGAGCCAAGCUUCGGCGCCUGCGCCGAUGGAGGUGUAGAGACUAGACGGCACCCACCUAAGGCGAACGGUAUGGUGAAGGCAUAGUCGAGGGAGGGGCGAAAGUCACACAAACCGG [C82G A111G A145G C150G C169G U176G]: the reverse-splicing fitness was 0.0064. In the case of GUGCCUUGCGCCGGGAAACCACGCAAGGGAUGGUGUCAAAUUCGGCGAAACCUAAGCGCCCGCCCGGGCGUAUGGCAACGCGGAGCCAAGCUUCGGCGCCUGCGCCGAUGGAGGUGUAGAGACUAGACGGCACCCACCUAAGGCGAACGAUAUGGUGAAGGCAUAGUCUAGGGAGCGGCGAAAGUCACACAAACCGG [C82G A111G A145G C150A C169U U176C], the reverse-splicing fitness stood at 0.0162. The value for GUGCCUUGCGCCGGGAAACCACGCAAGGGAUGGUGUCAAAUUCGGCGAAACCUAAGCGCCCGCCCGGGCGUAUGGCAACGCGGAGCCAAGCUUCGGCGCCUGCGCCGAUGGAGGUGUAGAGACUAGACGGCACCCACCUAAGGCGAACGAUAUGGUGAAGGCAUAGUCUAGGGAGGGGCGAAAGUCACACAAACCGG [C82G A111G A145G C150A C169U U176G] was 0.00674.

For GUGCCUUGCGCCGGGAAACCACGCAAGGGAUGGUGUCAAAUUCGGCGAAACCUAAGCGCCCGCCCGGGCGUAUGGCAACGCGGAGCCAAGCUUCGGCGCCUGCGCCGAUGGAGGUGUAGAGACUAGACGGCACCCACCUAAGGCGAACGAUAUGGUGAAGGCAUAGUCUAGGGAGAGGCGAAAGUCACACAAACCGG [C82G A111G A145G C150A C169U U176A], the reverse-splicing fitness worked out at 0.0155. Take GUGCCUUGCGCCGGGAAACCACGCAAGGGAUGGUGUCAAAUUCGGCGAAACCUAAGCGCCCGCCCGGGCGUAUGGCAACGCGGAGCCAAGCUUCGGCGCCUGCGCCGAUGGAGGUGUAGAGACUAGACGGCACCCACCUAAGGCGAACGAUAUGGUGAAGGCAUAGUCGAGGGAGAGGCGAAAGUCACACAAACCGG [C82G A111G A145G C150A C169G U176A]: the reverse-splicing fitness worked out at 0.0196. The value for GUGCCUUGCGCCGGGAAACCACGCAAGGGAUGGUGUCAAAUUCGGCGAAACCUAAGCGCCCGCCCGGGCGUAUGGCAACGCGGAGCCAAGCUUCGGCGCCUGCGCCGAUGGAGGUGUAGAGACUAGACGGCACCCACCUAAGGCGAACGAUAUGGUGAAGGCAUAGUCGAGGGAGCGGCGAAAGUCACACAAACCGG [C82G A111G A145G C150A C169G U176C] was 0.0258; that for GUGCCUUGCGCCGGGAAACCACGCAAGGGAUGGUGUCAAAUUCGGCGAAACCUAAGCGCCCGCCCGGGCGUAUGGCAACGCGGAGCCAAGCUUCGGCGCCUGCGCCGAUGGAGGUGUAGAGACUAGACGGCACCCACCUAAGGCGAACGAUAUGGUGAAGGCAUAGUCGAGGGAGGGGCGAAAGUCACACAAACCGG [C82G A111G A145G C150A C169G U176G] was 0.006; that for GUGCCUUGCGCCGGGAAACCACGCAAGGGAUGGUGUCAAAUUCGGCGAAACCUAAGCGCCCGCCCGGGCGUAUGGCAACGCGGAGCCAAGCUUCGGCGCCUGCGCCGAUGGAGGUGUAGAGACUAGACGGCACCCACCUAAGGCGAACGAUAUGGUGAAGGCAUAGUCCAGGGAGCGGCGAAAGUCACACAAACCGG [C82G A111G A145G C150A U176C] was 0.051.

GUGCCUUGCGCCGGGAAACCACGCAAGGGAUGGUGUCAAAUUCGGCGAAACCUAAGCGCCCGCCCGGGCGUAUGGCAACGCGGAGCCAAGCUUCGGCGCCUGCGCCGAUGGAGGUGUAGAGACUAGACGGCACCCACCUAAGGCGAACGAUAUGGUGAAGGCAUAGUCCAGGGAGAGGCGAAAGUCACACAAACCGG [C82G A111G A145G C150A U176A]: the reverse-splicing fitness stood at 0.0383.

With GUGCCUUGCGCCGGGAAACCACGCAAGGGAUGGUGUCAAAUUCGGCGAAACCUAAGCGCCCGCCCGGGCGUAUGGCAACGCGGAGCCAAGCUUCGGCGCCUGCGCCGAUGGAGGUGUAGAGACUAGACGGCACCCACCUAAGGCGAACGAUAUGGUGAAGGCAUAGUCCAGGGAGGGGCGAAAGUCACACAAACCGG [C82G A111G A145G C150A U176G], the reverse-splicing fitness came out at 0.0208. The value for GUGCCUUGCGCCGGGAAACCACGCAAGGGAUGGUGUCAAAUUCGGCGAAACCUAAGCGCCCGCCCGGGCGUAUGGCAACGCGGAGCCAAGCUUCGGCGCCUGCGCCGAUGGAGGUGUAGAGACUAGACGGCACCCACCUAAGGCGAACGGUAUGGUGAAGGCAUAGUCAAGGGAGUGGCGAAAGUCACACAAACCGG [C82G A111G A145G C150G C169A] was 0.00978.
